Laboratory results from article PMC11546298.

Biological target: eYFP-MotD (P. aeruginosa)
Assay: FRET or BRET

Which FRET efficiency (E) does the source give for “eCFP-MotY (from UniProt A0A0H2ZD91 1-321) (natural protein)” here?
The FRET efficiency (E) was 1.54%.
